B1: Ib_S1_P5E.1_K5.1_C5.1_H5.1_A5.1_[T5C]_F5.1_[T8G]_T5.1 (ssRNA)
RNA: UCUCUUUGUACUAGUAUCUCUU
B2: Ib_S1_P5E.1_K5.1_C5.1_H5.1_A5.1_[T5A]_F5.1_[T8G]_T5.1 (ssRNA)
RNA: UCUCUUUGUAAUAGUAUCUCUU
B3: Id_ii_S2_P4E.4_K4.3_C4.2_[C-2T]_[T-1C]_H4.3_A4.1_F4.1_T4.2_[G10T]_[T11A] (ssRNA)
RNA: UUUGAUUAAUAUGAUAUCGUUCUUUCUUCACACUAUUAUAUUCUUUCUCGAUAUCAUAUUAAUCUUU
B4: Id_ii_S2_P4E.4_K4.3_C4.2_[C-2A]_H4.3_A4.1_F4.1_T4.2_[G10C]_[T11G] (ssRNA)
RNA: UUUGAUUAAUAUGAUAUCGUUCUUUCUAUACACUAUUACGUUCUUUCUCGAUAUCAUAUUAAUCUUU
B5: Id_ii_S2_P4E.4_K4.3_C4.2_[C-2T]_[T-1A]_H4.3_A4.1_F4.1_T4.2_[G10A]_[T11A] (ssRNA)
RNA: UUUGAUUAAUAUGAUAUCGUUCUUUCUUAACACUAUUAAAUUCUUUCUCGAUAUCAUAUUAAUCUUU
B6: Id_ii_S2_P4E.4_K4.3_C4.2_[C-2T]_[T-1A]_H4.3_A4.1_F4.1_T4.2 (ssRNA)
RNA: UUUGAUUAAUAUGAUAUCGUUCUUUCUUAACACUAUUAGUUUCUUUCUCGAUAUCAUAUUAAUCUUU
B7: Id_ii_S2_P4E.4_K4.3_C4.2_[C-2T]_[T-1C]_H4.3_A4.1_F4.1_T4.2_[G10A]_[T11A] (ssRNA)
RNA: UUUGAUUAAUAUGAUAUCGUUCUUUCUUCACACUAUUAAAUUCUUUCUCGAUAUCAUAUUAAUCUUU
B8: Id_ii_S2_P4E.4_K4.3_C4.2_[C-2T]_[T-1A]_H4.3_A4.1_F4.1_T4.2_[G10T] (ssRNA)
RNA: UUUGAUUAAUAUGAUAUCGUUCUUUCUUAACACUAUUAUUUUCUUUCUCGAUAUCAUAUUAAUCUUU
B9: Id_ii_S2_P4E.4_K4.3_C4.2_[C-2A]_[T-1A]_H4.3_A4.1_F4.1_T4.2_[G10A] (ssRNA)
RNA: UUUGAUUAAUAUGAUAUCGUUCUUUCUAAACACUAUUAAUUUCUUUCUCGAUAUCAUAUUAAUCUUU
B10: Id_ii_S2_P4E.4_K4.3_C4.2_[C-2A]_H4.3_A4.1_F4.1_T4.2_[G10C]_[T11A] (ssRNA)
RNA: UUUGAUUAAUAUGAUAUCGUUCUUUCUAUACACUAUUACAUUCUUUCUCGAUAUCAUAUUAAUCUUU
B11: Id_ii_S2_P4E.4_K4.3_C4.2_[C-2A]_H4.3_A4.1_F4.1_T4.2_[G10T] (ssRNA)
RNA: UUUGAUUAAUAUGAUAUCGUUCUUUCUAUACACUAUUAUUUUCUUUCUCGAUAUCAUAUUAAUCUUU
B12: Id_ii_S2_P4E.4_K4.3_C4.2_[C-2A]_H4.3_A4.1_F4.1_T4.2_[G10T]_[T11C] (ssRNA)
RNA: UUUGAUUAAUAUGAUAUCGUUCUUUCUAUACACUAUUAUCUUCUUUCUCGAUAUCAUAUUAAUCUUU
B13: Id_ii_S2_P4E.4_K4.3_C4.2_[C-2A]_H4.3_A4.1_F4.1_T4.2_[G10C]_[T11C] (ssRNA)
RNA: UUUGAUUAAUAUGAUAUCGUUCUUUCUAUACACUAUUACCUUCUUUCUCGAUAUCAUAUUAAUCUUU
B14: Id_ii_S2_P4E.4_K4.3_C4.2_[T-1G]_H4.3_A4.1_F4.1_T4.2_[G10C] (ssRNA)
RNA: UUUGAUUAAUAUGAUAUCGUUCUUUCUCGACACUAUUACUUUCUUUCUCGAUAUCAUAUUAAUCUUU
B15: Id_ii_S2_P4E.4_K4.3_C4.2_[C-2T]_H4.3_A4.1_F4.1_T4.2 (ssRNA)
RNA: UUUGAUUAAUAUGAUAUCGUUCUUUCUUUACACUAUUAGUUUCUUUCUCGAUAUCAUAUUAAUCUUU
B16: Id_ii_S2_P4E.4_K4.3_C4.2_[C-2T]_H4.3_A4.1_F4.1_T4.2_[G10A]_[T11A] (ssRNA)
RNA: UUUGAUUAAUAUGAUAUCGUUCUUUCUUUACACUAUUAAAUUCUUUCUCGAUAUCAUAUUAAUCUUU
B17: Id_ii_S2_P4E.4_K4.3_C4.2_[C-2T]_H4.3_A4.1_F4.1_T4.2_[G10A] (ssRNA)
RNA: UUUGAUUAAUAUGAUAUCGUUCUUUCUUUACACUAUUAAUUUCUUUCUCGAUAUCAUAUUAAUCUUU
B18: Id_ii_S2_P4E.4_K4.3_C4.2_[C-2T]_H4.3_A4.1_F4.1_T4.2_[G10C]_[T11C] (ssRNA)
RNA: UUUGAUUAAUAUGAUAUCGUUCUUUCUUUACACUAUUACCUUCUUUCUCGAUAUCAUAUUAAUCUUU
B19: Id_ii_S2_P4E.4_K4.3_C4.2_[C-2T]_[T-1A]_H4.3_A4.1_F4.1_T4.2_[G10T]_[T11A] (ssRNA)
RNA: UUUGAUUAAUAUGAUAUCGUUCUUUCUUAACACUAUUAUAUUCUUUCUCGAUAUCAUAUUAAUCUUU
B20: Id_ii_S2_P4E.4_K4.3_C4.2_[C-2A]_H4.3_A4.1_F4.1_T4.2_[G10C] (ssRNA)
RNA: UUUGAUUAAUAUGAUAUCGUUCUUUCUAUACACUAUUACUUUCUUUCUCGAUAUCAUAUUAAUCUUU
B21: Id_ii_S2_P4E.4_K4.3_C4.2_[C-2A]_[T-1C]_H4.3_A4.1_F4.1_T4.2_[G10A]_[T11A] (ssRNA)
RNA: UUUGAUUAAUAUGAUAUCGUUCUUUCUACACACUAUUAAAUUCUUUCUCGAUAUCAUAUUAAUCUUU
B22: Id_ii_S2_P4E.4_K4.3_C4.2_[C-2A]_[T-1A]_H4.3_A4.1_F4.1_T4.2_[G10C] (ssRNA)
RNA: UUUGAUUAAUAUGAUAUCGUUCUUUCUAAACACUAUUACUUUCUUUCUCGAUAUCAUAUUAAUCUUU
B23: Id_ii_S2_P4E.4_K4.3_C4.2_[C-2A]_[T-1C]_H4.3_A4.1_F4.1_T4.2_[G10T]_[T11C] (ssRNA)
RNA: UUUGAUUAAUAUGAUAUCGUUCUUUCUACACACUAUUAUCUUCUUUCUCGAUAUCAUAUUAAUCUUU
B24: Id_ii_S2_P4E.4_K4.3_C4.2_[C-2T]_H4.3_A4.1_F4.1_T4.2_[G10C]_[T11A] (ssRNA)
RNA: UUUGAUUAAUAUGAUAUCGUUCUUUCUUUACACUAUUACAUUCUUUCUCGAUAUCAUAUUAAUCUUU
B25: Id_ii_S2_P4E.4_K4.3_C4.2_[C-2T]_[T-1C]_H4.3_A4.1_F4.1_T4.2_[G10T] (ssRNA)
RNA: UUUGAUUAAUAUGAUAUCGUUCUUUCUUCACACUAUUAUUUUCUUUCUCGAUAUCAUAUUAAUCUUU
B26: Id_ii_S2_P4E.4_K4.3_C4.2_[C-2A]_[T-1A]_H4.3_A4.1_F4.1_T4.2_[G10T]_[T11C] (ssRNA)
RNA: UUUGAUUAAUAUGAUAUCGUUCUUUCUAAACACUAUUAUCUUCUUUCUCGAUAUCAUAUUAAUCUUU
B27: Id_ii_S2_P4E.4_K4.3_C4.2_[C-2T]_H4.3_A4.1_F4.1_T4.2_[G10A]_[T11C] (ssRNA)
RNA: UUUGAUUAAUAUGAUAUCGUUCUUUCUUUACACUAUUAACUUCUUUCUCGAUAUCAUAUUAAUCUUU
B28: Id_ii_S2_P4E.4_K4.3_C4.2_[C-2A]_[T-1C]_H4.3_A4.1_F4.1_T4.2_[G10C] (ssRNA)
RNA: UUUGAUUAAUAUGAUAUCGUUCUUUCUACACACUAUUACUUUCUUUCUCGAUAUCAUAUUAAUCUUU
B29: Id_ii_S2_P4E.4_K4.3_C4.2_[C-2T]_[T-1A]_H4.3_A4.1_F4.1_T4.2_[G10C]_[T11A] (ssRNA)
RNA: UUUGAUUAAUAUGAUAUCGUUCUUUCUUAACACUAUUACAUUCUUUCUCGAUAUCAUAUUAAUCUUU
B30: Id_ii_S2_P4E.4_K4.3_C4.2_[C-2A]_[T-1C]_H4.3_A4.1_F4.1_T4.2_[G10T]_[T11A] (ssRNA)
RNA: UUUGAUUAAUAUGAUAUCGUUCUUUCUACACACUAUUAUAUUCUUUCUCGAUAUCAUAUUAAUCUUU
B31: Id_ii_S2_P4E.4_K4.3_C4.2_[C-2A]_H4.3_A4.1_F4.1_T4.2_[G10A]_[T11C] (ssRNA)
RNA: UUUGAUUAAUAUGAUAUCGUUCUUUCUAUACACUAUUAACUUCUUUCUCGAUAUCAUAUUAAUCUUU
B32: Id_ii_S2_P4E.4_K4.3_C4.2_[C-2A]_[T-1A]_H4.3_A4.1_F4.1_T4.2_[G10C]_[T11C] (ssRNA)
RNA: UUUGAUUAAUAUGAUAUCGUUCUUUCUAAACACUAUUACCUUCUUUCUCGAUAUCAUAUUAAUCUUU
B33: Ib_S1_P5E.1_K5.1_C5.1_H5.1_A5.1_[T5C]_F5.1_[T8C]_T5.1 (ssRNA)
RNA: UCUCUUUGUACUACUAUCUCUU

Some results are limits rather than exact numbers.

For this data set, the target named is T1, PUF4 RNA-binding domain (Saccharomyces cerevisiae, UniProt P25339 537-888).
T1 sequence: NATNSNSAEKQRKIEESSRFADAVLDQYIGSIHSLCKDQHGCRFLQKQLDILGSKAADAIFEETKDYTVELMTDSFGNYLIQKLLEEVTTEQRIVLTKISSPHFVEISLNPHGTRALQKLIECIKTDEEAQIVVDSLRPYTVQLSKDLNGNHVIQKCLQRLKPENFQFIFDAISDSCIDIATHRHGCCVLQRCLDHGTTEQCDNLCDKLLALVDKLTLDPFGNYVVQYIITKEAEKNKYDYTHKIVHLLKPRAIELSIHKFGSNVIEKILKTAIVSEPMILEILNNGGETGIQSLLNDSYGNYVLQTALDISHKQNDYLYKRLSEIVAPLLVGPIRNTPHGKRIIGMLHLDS
The data set is described as follows: Mg; RNA-MaP; 20 mM Na-HEPES pH 7.4, 30 mM KOAc, 0.75 mM MgCl2, 0.1% Tween-20, 5% glycerol, 0.1 mg/mL BSA, 2 mM DTT; 25 C; 0.0125-409.6 nM protein. To be noted: tags: N-His6-TEV cleaved; C-SNAP kept, Cy3B-labelled; label: tethered on chip by stalled RNA polymerase.
In the case of B1, the Kd was found to be 23.5 nM.

Turning to B2, binding was put at a Kd of 21.4 nM.

The molecule B3 had a Kd of 479 nM.

Turning to B4, binding was characterised by a dissociation constant (Kd) of 47.6 nM.

B5 registered a Kd of more than 2300 nM.

As for B6, the Kd is more than 2300 nM.

Molecule B7 returned a Kd of more than 2300 nM.

In the case of B8, the Kd came to 2160 nM. This lies in the single-digit micromolar range.

B9 yielded a Kd of more than 2300 nM.

B10 registered a dissociation constant Kd of 11.4 nM.

Turning to B11, the Kd stood at 12.3 nM.

In turn, B12 came in with a Kd of 10.3 nM.

B13 came in with a dissociation constant (Kd) of 10.8 nM. This Kd and that of the molecule before are within 1.5-fold of each other.

B14 had a dissociation constant Kd of more than 2300 nM.

On to B15, for which the affinity, expressed as Kd, was 2020 nM.

As for B16, the affinity, expressed as Kd, was 806 nM.

The molecule B17 registered an equilibrium dissociation constant (Kd) of 445 nM. This Kd lies about 1.8-fold lower than the previous one.

For B18, the Kd turned out to be 306 nM.

B19 registered a Kd of 882 nM.

Consider B20, for which the Kd is 9.11 nM.

For the molecule B21, the Kd was more than 2300 nM.

In turn, B22 displayed a Kd of more than 2300 nM.

With B23, the Kd was more than 2300 nM.

For B24, the Kd stood at 198 nM.

B25 showed a dissociation constant Kd of 1530 nM.

With B26, the Kd is more than 2300 nM.

With B27, the Kd came out at 305 nM.

Consider B28, for which the Kd is more than 2300 nM.

Take B29: the Kd was 2190 nM. This counts as single-digit micromolar.

As to B30, the Kd is 592 nM.

In turn, B31 returned a Kd of 9.57 nM.

Turning to B32, the dissociation constant Kd is more than 2300 nM.

Consider B33, for which binding was put at a Kd of 10.9 nM. That is a double-digit nanomolar value.

Source of the values: PMC9352680, “A comprehensive thermodynamic model for RNA binding by the Saccharomyces cerevisiae Pumilio protein PUF4”.
